Results: article PMC6211538

What was measured:
[1] = target: AMPA receptor GluA2 from rat with deletion of the disordered intracellular C-terminal domain (GluA2cryst) (rat) (UniProt P19491); experiment: small-angle neutron scattering (SANS), molecular weight by Fischer analysis; with 1 mM GYKI-53655; 0.31 mg/ml (0.84 uM) GluA2 in D2O-based buffer with 0.5 mM matched-out deuterated DDM; 10°C; oligomeric state from MW against the construct's 368 kDa
[2] = target: AMPA receptor GluA2 from rat with deletion of the disordered intracellular C-terminal domain (GluA2cryst) (rat) (UniProt P19491); experiment: small-angle neutron scattering (SANS), molecular weight by Fischer analysis; with 1 mM AMPA, pH 7.5; 0.31 mg/ml (0.84 uM) GluA2 in D2O-based buffer with 0.5 mM matched-out deuterated DDM; 10°C; oligomeric state from MW against the construct's 368 kDa
[3] = target: AMPA receptor GluA2 from rat with deletion of the disordered intracellular C-terminal domain (GluA2cryst) (rat) (UniProt P19491); experiment: small-angle neutron scattering (SANS), molecular weight by Fischer analysis; with 10 mM AMPA, pH 5.5; 0.17 mg/ml (0.46 uM) GluA2 in D2O-based buffer with 0.5 mM matched-out deuterated DDM; 10°C; oligomeric state from MW against the construct's 368 kDa
[4] = target: AMPA receptor GluA2 from rat with deletion of the disordered intracellular C-terminal domain (GluA2cryst) (rat) (UniProt P19491); experiment: small-angle neutron scattering (SANS), molecular weight by Fischer analysis; resting state (apo); 0.20 mg/ml (0.54 uM) GluA2 in D2O-based buffer, 20 mM Tris-DCl pH 7.5, 100 mM NaCl, 0.5 mM matched-out deuterated DDM; 10°C; oligomeric state from MW against the construct's 368 kDa

stoichiometry N [1]: 4
stoichiometry N [2]: 4
stoichiometry N [3]: 4
stoichiometry N [4]: 4
Substance: AMPA receptor GluA2 from rat with deletion of the disordered intracellular C-terminal domain (GluA2cryst) (from UniProt P19491 22-883)
